This note sets out measurements from patent US6635429B1.

Assay [1] concerns the target bacterially-expressed hRAR-γ (human) (UniProt P13631). Description: complementation gel retardation with bacterially-expressed hRAR-γ on β-RARE; cpm in the complex per µg of protein of the purification step.

B1: mRXR-α (receptor)
chain: MDTKHFLPLDFSTQVNSSSLNSPTGRGSMAVPSLHPSLGPGIGSPLGSPGQLHSPISTLSSPINGMGPPFSVISSPMGPHSMSVPTTPTLGFGTGSPQLNSPMNPVSSTEDIKPPLGLNGVLKVPAHPSGNMASFTKHICAICGDRSSGKHYGVYSCEGCKGFFKRTVRKDLTYTCRDNKDCLIDKRQRNRCQYCRYQKCLAMGMKREAVQEERQRGKDRNENEVESTSSANEDMPVEKILEAELAVEPKTETYVEANMGLNPSSPNDPVTNICQAADKQLFTLVEWAKRIPHFSELPLDDQVILLRAGWNELLIASFSHRSIAVKDGILLATGLHVHRNSAHSAGVGAIFDRVLTELVSKMRDMQMDKTELGCLRAIVLFNPDSKGLSNPAEVEALREKVYASLEAYCKHKYPEQPGRFAKLLLRLPALRSIGLKCLEHLFFFKLIGDTPIDTFLMEMLEAPHQAT
The molecule B1 gave an OMPdecase activity of the DR1-URA3 reporter in yeast in the assay with mRXR-α (mouse) of 30 fold.

B2: purified HeLa cell RBF (HAP-TSK) (receptor)
chain: MSWAARPPFLPQRHAAGQCGPVGVRKEMHCGVASRWRRRRPWLDPAAAAAAAVAGGEQQTPEPEPGEAGRDGMGDSGRDSRSPDSSSPNPLPQGVPPPSPPGPPLPPSTAPTLGGSGAPPPPPMPPPPLGSPFPVISSSMGSPGLPPPAPPGFSGPVSSPQINSTVSLPGGGSGPPEDVKPPVLGVRGLHCPPPPGGPGAGKRLCAICGDRSSGKHYGVYSCEGCKGFFKRTIRKDLTYSCRDNKDCTVDKRQRNRCQYCRYQKCLATGMKREAVQEERQRGKDKDGDGEGAGGAPEEMPVDRILEAELAVEQKSDQGVEGPGGTGGSGSSPNDPVTNICQAADKQLFTLVEWAKRIPHFSSLPLDDQVILLRAGWNELLIASFSHRSIDVRDGILLATGLHVHRNSAHSAGVGAIFDRVLTELVSKMRDMRMDKTELGCLRAIILFNPDAKGLSNPSEVEVLREKVYASLETYCKQKYPEQQGRFAKLLLRLPALRSIGLKCLEHLFFFKLIGDTPIDTFLMEMLEAPHQLA
In assay [1], B2 gave a Specific Activity (cpm/µg) of 7.75e+06 cpm/µg.
